Measurements published in the supplement of paper PMC12764529.
± gives the half width of the 95% confidence interval.

Key:
[1] = folding stability dG unfold (combined trypsin and chymotrypsin); higher = more stable
Outline: (§1)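 K50 was inferred by Bayesian fitting of sequencing counts obtained after protease digestion of designed mini-proteins. Unfolding free energy was derived by comparison with a sequence-predicted unfolded-state K50 and a shared folded-state K50, for each protease or both combined. The mini-proteins were under 80 residues, had no cysteine, were carried in a PA-tagged cDNA display construct, and were kept only if AlphaFold2 dimer inter-PAE exceeded 15.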

[2] = folding stability dG unfold from trypsin proteolysis; higher = more stable
Outline: as §1

[3] = folding stability dG unfold from chymotrypsin proteolysis; higher = more stable
Outline: as §1

Sequence | folding stability dG unfold [1] | folding stability dG unfold [2] | folding stability dG unfold [3]
SAGGSAGGSPVLVRVYARDEDGNETPVAEIALPVENDNPEEAAKKAREIAKKLGVKEYRVEIESAGGSAGGS [r12_569_TrMRF] | 1.48 ± 0.04 kcal/mol | 1.37 ± 0.031 kcal/mol | 1.56 ± 0.046 kcal/mol
SAGGSAGGSPVVVIEVPAEDLSPEDIKALLAAAPDENAVIVITNPDGEKRTLVFTPDGRIEPLSAGGSAGGS [r12_1054_TrROS_Hall] | 0.593 ± 0.042 kcal/mol | 0.681 ± 0.024 kcal/mol | 0.451 ± 0.1 kcal/mol
SAGGSAGGSPWKKVKFKFMFPFPNYYVRISIEIWVNPGDNEIMIEMSIEIFPIPPGDNKAFKDSAGGSAGGS [r12_885_TrROS] | 3.31 ± 0.36 kcal/mol | 2.79 ± 0.24 kcal/mol | 3.9 ± 0.11 kcal/mol
SAGGSAGGSPYKEVPVPVRIHSPDGETHEFPGTIWKSPDDGMLEIRFPGNGKKHKIPLNDIQISAGGSAGGS [r12_772_TrROS] | -0.699 ± 0.22 kcal/mol | -1.5 ± 0.59 kcal/mol | -0.606 ± 0.19 kcal/mol
SAGGSAGGSPYLVTVTLPDGSTLTHTIPVPPDVPLSEEEIRERIRREYPGPPLGPITIERPTESAGGSAGGS [r12_262_JUSTAS] | 1.35 ± 0.09 kcal/mol | 0.885 ± 0.015 kcal/mol | 1.62 ± 0.047 kcal/mol
SAGGSAGGSRLDATRALLDKLPPGSVTVTVYVNGKPVTFRFGSREEIEEAIEANPDVEVEIEPASAGGSAGG [r6_421_TrMRF] | 1.38 ± 0.098 kcal/mol | 0.93 ± 0.13 kcal/mol | 1.74 ± 0.16 kcal/mol
SAGGSAGGSSAVVPLPDVVLVVLTFPDGGPPVLALLFPPTGRVVFVHPDSVTVAPFAPGGSLLSAGGSAGGS [r12_536_TrMRF] | 1.51 ± 0.07 kcal/mol | 1.1 ± 0.036 kcal/mol | 1.74 ± 0.062 kcal/mol
SAGGSAGGSSFSVEVIENPDSDVILRKIHFDNFTVIPLFDPSTGKIVSVVVQFPDGSWYTFPLSAGGSAGGS [r12_563_TrMRF] | 2.51 ± 0.11 kcal/mol | 2.18 ± 0.1 kcal/mol | 2.78 ± 0.053 kcal/mol
SAGGSAGGSSGKYTITVTRKNPDGTPLGVFPIEVEGESEEEAKALAEELKNQPDVVEVKVTYVDSAGGSAGG [r6_475_JUSTAS] | 1.22 ± 0.048 kcal/mol | 1.37 ± 0.027 kcal/mol | 1.02 ± 0.054 kcal/mol
SAGGSAGGSSGTVTLRLRFRVVDLDPATGEASEHEFELTLTVPIELPAAAPPATPTYGLTLPGSAGGSAGGS [r12_140_TrMRF] | 2.39 ± 0.16 kcal/mol | 0.895 ± 0.12 kcal/mol | 2.79 ± 0.074 kcal/mol
SAGGSAGGSSKTFKDPDGWTITVEPLDGGVKVEIYWPDGQRQEHLIPPGEPIKIDPNGWYIEISAGGSAGGS [r12_281_TrROS] | 1.69 ± 0.19 kcal/mol | 0.5 ± 0.069 kcal/mol | 2.11 ± 0.061 kcal/mol
SAGGSAGGSSMPIYTVTVTYSDGTVRTYELTPEEIEAFAAEVPDAEVTELPPGKVEVTVKIPASAGGSAGGS [r20_231_JUSTAS] | 2.33 ± 0.07 kcal/mol | 2.01 ± 0.096 kcal/mol | 2.49 ± 0.027 kcal/mol
SAGGSAGGSSMTITVTDLVTGEPGEIPEELKAELAAEAEESGSAVTFEITTPDGKKYRAEITPSAGGSAGGS [r12_41_JUSTAS] | 1.1 ± 0.1 kcal/mol | 0.928 ± 0.029 kcal/mol | 1.13 ± 0.088 kcal/mol
SAGGSAGGSSPSSVSTYDIEFPDGTKIKITVTLGPGTPVVEITTLTESPPVKRVANTEEVKFESAGGSAGGS [r20_100_JUSTAS] | 0.696 ± 0.19 kcal/mol | -0.0821 ± 0.059 kcal/mol | 0.995 ± 0.041 kcal/mol
SAGGSAGGSSPVKQVTEVKDPHSSLPLLRTTETLVLPNGEVVTKVKFIDTKTGKSTEEIFTIPSAGGSAGGS [r20_229_JUSTAS] | 0.833 ± 0.089 kcal/mol | 0.724 ± 0.046 kcal/mol | 1.02 ± 0.13 kcal/mol
SAGGSAGGSSPVPVKVSANSVEPGESSSSNINIPKEALEKDSLTPEELKKILQKQGPNVTITGSAGGSAGGS [r20_221_JUSTAS] | -0.0407 ± 0.23 kcal/mol | -0.423 ± 0.086 kcal/mol | 0.124 ± 0.049 kcal/mol
SAGGSAGGSSQEREFTLPDPDGKDIKITMHQNPDGRPRAEIENKDGEPVKEFDSPDDIEDLLKSAGGSAGGS [r20_202_TrROS] | -0.0562 ± 0.22 kcal/mol | -0.273 ± 0.2 kcal/mol | 0.168 ± 0.06 kcal/mol
SAGGSAGGSSQRIKIEDIEPPPNGQWRVRIKMPNGKEREVTMPPDKLEIELPPNITDVSLWPVSAGGSAGGS [r20_194_TrROS] | 4.01 ± 0.33 kcal/mol | 3.88 ± 0.16 kcal/mol | 3.91 ± 0.33 kcal/mol
SAGGSAGGSSSSSVVTKPLPEEPLLVVTTTLPPSTPPGTTSTTTIIEPETGKVLETTDINIPSSAGGSAGGS [r12_564_JUSTAS] | 1.41 ± 0.11 kcal/mol | 1.92 ± 0.13 kcal/mol | 0.954 ± 0.1 kcal/mol
SAGGSAGGSSSSTLISVEPSPGIVTVERPLSLDPVPVVERRIMTVSPSSSLSVTETSVFPVSLLSAGGSAGG [r6_970_JUSTAS] | 1.02 ± 0.15 kcal/mol | 0.818 ± 0.095 kcal/mol | 0.932 ± 0.24 kcal/mol
SAGGSAGGSSSVTPVPETTLVTLTPPDGSPPVLGTVFPATGTMLLFYPDSVLLLPLGPGTTLFSAGGSAGGS [r12_536_JUSTAS] | 0.82 ± 0.079 kcal/mol | 0.888 ± 0.034 kcal/mol | 0.503 ± 0.08 kcal/mol
